Reference: patent US20180155451A1 (published 2018)

T1: FcγRIIa R (FcγRIIa, allotype R, Arg at position 131), extracellular domain with C-terminal His tag (human, UniProt P12318 34-217)
T1 construct: extracellular domain; soluble receptor used as Biacore analyte; also called 2aR; FcgRIIa R
T1 sequence (looked up): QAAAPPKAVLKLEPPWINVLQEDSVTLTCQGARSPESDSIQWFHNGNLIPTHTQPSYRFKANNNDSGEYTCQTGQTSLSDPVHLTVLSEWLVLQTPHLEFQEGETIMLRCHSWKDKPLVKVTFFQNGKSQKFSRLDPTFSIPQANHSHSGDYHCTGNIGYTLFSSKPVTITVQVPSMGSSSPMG

T2: FcγRIIb, extracellular domain with C-terminal His tag (human, UniProt P31994 43-217)
T2 construct: extracellular domain; soluble receptor used as Biacore analyte; also called 2b; FcgRIIb
T2 sequence (looked up): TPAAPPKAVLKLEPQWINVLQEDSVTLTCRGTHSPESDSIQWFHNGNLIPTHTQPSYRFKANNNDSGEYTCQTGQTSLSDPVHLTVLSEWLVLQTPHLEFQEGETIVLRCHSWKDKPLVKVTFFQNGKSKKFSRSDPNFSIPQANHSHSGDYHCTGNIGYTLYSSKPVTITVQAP

B1: heterodimerized antibody GpH7-A5/GpH7-B3 variant S267_08L/GpL16-k0 (antibody, human IgG1, kappa)
heavy 1: not shown
heavy 2: not shown
light: DIVMTQSPLSLPVTPGEPASISCQASESLVHSNRNTYLHWYLQKPGQSPQLLIYKVSNRFSGVPDRFSGSGSGTDFTLKISRVEAEDVGVYYCSQNTHVPPTFGQGTKVEIERTVAAPSVFIFPPSDEQLKSGTASVVCLLNNFYPREAKVQWKVDNALQSGNSQESVTEQDSKDSTYSLSSTLTLSKADYEKHKVYACEVTHQGLSSPVTKSFNRGEC
notes: He Ab: anti-glypican-3 IgG1, alteration in one H chain only; also called He Ab
B2: heterodimerized antibody GpH7-A5/GpH7-B3 variant P238_04F/GpL16-k0 (antibody, human IgG1, kappa)
heavy 1: not shown
heavy 2: not shown
light: B1 light
notes: as for B1
B3: heterodimerized antibody GpH7-A5/GpH7-B3 variant G236_09D/GpL16-k0 (antibody, human IgG1, kappa)
heavy 1: not shown
heavy 2: not shown
light: B1 light
notes: as for B1
B4: heterodimerized antibody GpH7-A5/GpH7-B3 variant H268_09D/GpL16-k0 (antibody, human IgG1, kappa)
heavy 1: not shown
heavy 2: not shown
light: B1 light
notes: as for B1
B5: heterodimerized antibody GpH7-A5/GpH7-B3 variant N325_08L/GpL16-k0 (antibody, human IgG1, kappa)
heavy 1: not shown
heavy 2: not shown
light: B1 light
notes: as for B1
B6: heterodimerized antibody GpH7-A5/GpH7-B3 variant A327_10E/GpL16-k0 (antibody, human IgG1, kappa)
heavy 1: not shown
heavy 2: not shown
light: B1 light
notes: as for B1
B7: heterodimerized antibody GpH7-A5/GpH7-B3 variant K326_10E/GpL16-k0 (antibody, human IgG1, kappa)
heavy 1: not shown
heavy 2: not shown
light: B1 light
notes: as for B1
B8: heterodimerized antibody GpH7-A5/GpH7-B3 variant G237_20W/GpL16-k0 (antibody, human IgG1, kappa)
heavy 1: not shown
heavy 2: not shown
light: B1 light
notes: as for B1
B9: heterodimerized antibody GpH7-A5/GpH7-B3 variant L328_11K/GpL16-k0 (antibody, human IgG1, kappa)
heavy 1: not shown
heavy 2: not shown
light: B1 light
notes: as for B1
B10: heterodimerized antibody GpH7-A5/GpH7-B3 variant H268_02A/GpL16-k0 (antibody, human IgG1, kappa)
heavy 1: not shown
heavy 2: not shown
light: B1 light
notes: as for B1
B11: heterodimerized antibody GpH7-A5/GpH7-B3 variant D270_05P/GpL16-k0 (antibody, human IgG1, kappa)
heavy 1: not shown
heavy 2: not shown
light: B1 light
notes: as for B1
B12: heterodimerized antibody GpH7-A5/GpH7-B3 variant A327_18N/GpL16-k0 (antibody, human IgG1, kappa)
heavy 1: not shown
heavy 2: not shown
light: B1 light
notes: as for B1
B13: heterodimerized antibody GpH7-A5/GpH7-B3 variant N325_06M/GpL16-k0 (antibody, human IgG1, kappa)
heavy 1: not shown
heavy 2: not shown
light: B1 light
notes: as for B1
B14: heterodimerized antibody GpH7-A5/GpH7-B3 variant H268_10E/GpL16-k0 (antibody, human IgG1, kappa)
heavy 1: not shown
heavy 2: not shown
light: B1 light
notes: as for B1
B15: heterodimerized antibody GpH7-A5/GpH7-B3 variant P271_01G/GpL16-k0 (antibody, human IgG1, kappa)
heavy 1: not shown
heavy 2: not shown
light: B1 light
notes: as for B1
B16: heterodimerized antibody GpH7-A5/GpH7-B3 variant K326_09D/GpL16-k0 (antibody, human IgG1, kappa)
heavy 1: not shown
heavy 2: not shown
light: B1 light
notes: as for B1
B17: heterodimerized antibody GpH7-A5/GpH7-B3 variant P238_09D/GpL16-k0 (antibody, human IgG1, kappa)
heavy 1: not shown
heavy 2: not shown
light: B1 light
notes: as for B1
B18: heterodimerized antibody GpH7-A5/GpH7-B3 variant L328_04F/GpL16-k0 (antibody, human IgG1, kappa)
heavy 1: not shown
heavy 2: not shown
light: B1 light
notes: as for B1
B19: heterodimerized antibody GpH7-A5/GpH7-B3 variant K326_07I/GpL16-k0 (antibody, human IgG1, kappa)
heavy 1: not shown
heavy 2: not shown
light: B1 light
notes: as for B1
B20: heterodimerized antibody GpH7-A5/GpH7-B3 variant H268_13S/GpL16-k0 (antibody, human IgG1, kappa)
heavy 1: not shown
heavy 2: not shown
light: B1 light
notes: as for B1
B21: heterodimerized antibody GpH7-A5/GpH7-B3 variant A327_12R/GpL16-k0 (antibody, human IgG1, kappa)
heavy 1: not shown
heavy 2: not shown
light: B1 light
notes: as for B1
B22: heterodimerized antibody GpH7-A5/GpH7-B3 variant N325_20W/GpL16-k0 (antibody, human IgG1, kappa)
heavy 1: not shown
heavy 2: not shown
light: B1 light
notes: as for B1
B23: heterodimerized antibody GpH7-A5/GpH7-B3 variant L328_07I/GpL16-k0 (antibody, human IgG1, kappa)
heavy 1: not shown
heavy 2: not shown
light: B1 light
notes: as for B1
B24: heterodimerized antibody GpH7-A5/GpH7-B3 variant P238_15Y/GpL16-k0 (antibody, human IgG1, kappa)
heavy 1: not shown
heavy 2: not shown
light: B1 light
notes: as for B1
B25: heterodimerized antibody GpH7-A5/GpH7-B3 variant A327_09D/GpL16-k0 (antibody, human IgG1, kappa)
heavy 1: not shown
heavy 2: not shown
light: B1 light
notes: as for B1
B26: heterodimerized antibody GpH7-A5/GpH7-B3 variant L328_10E/GpL16-k0 (antibody, human IgG1, kappa)
heavy 1: not shown
heavy 2: not shown
light: B1 light
notes: as for B1
B27: heterodimerized antibody GpH7-A5/GpH7-B3 variant S239_09D/GpL16-k0 (antibody, human IgG1, kappa)
heavy 1: not shown
heavy 2: not shown
light: B1 light
notes: as for B1
B28: heterodimerized antibody GpH7-A5/GpH7-B3 variant P238_10E/GpL16-k0 (antibody, human IgG1, kappa)
heavy 1: not shown
heavy 2: not shown
light: B1 light
notes: as for B1
B29: heterodimerized antibody GpH7-A5/GpH7-B3 variant G237_09D/GpL16-k0 (antibody, human IgG1, kappa)
heavy 1: not shown
heavy 2: not shown
light: B1 light
notes: as for B1
B30: heterodimerized antibody GpH7-A5/GpH7-B3 variant P238_08L/GpL16-k0 (antibody, human IgG1, kappa)
heavy 1: not shown
heavy 2: not shown
light: B1 light
notes: as for B1
B31: heterodimerized antibody GpH7-A5/GpH7-B3 variant K326_08L/GpL16-k0 (antibody, human IgG1, kappa)
heavy 1: not shown
heavy 2: not shown
light: B1 light
notes: as for B1
B32: heterodimerized antibody GpH7-A5/GpH7-B3 variant L328_12R/GpL16-k0 (antibody, human IgG1, kappa)
heavy 1: not shown
heavy 2: not shown
light: B1 light
notes: as for B1
B33: heterodimerized antibody GpH7-A5/GpH7-B3 variant L328_09D/GpL16-k0 (antibody, human IgG1, kappa)
heavy 1: not shown
heavy 2: not shown
light: B1 light
notes: as for B1
B34: heterodimerized antibody GpH7-A5/GpH7-B3 variant N325_07I/GpL16-k0 (antibody, human IgG1, kappa)
heavy 1: not shown
heavy 2: not shown
light: B1 light
notes: as for B1
B35: heterodimerized antibody GpH7-A5/GpH7-B3 variant A327_07I/GpL16-k0 (antibody, human IgG1, kappa)
heavy 1: not shown
heavy 2: not shown
light: B1 light
notes: as for B1

Target: T1, FcγRIIa R (FcγRIIa, allotype R, Arg at …)
Assay: Biacore SPR; He/Con_2aR divided by He/Con_2b (FcγRIIb)
Protocol: (§1) The heterodimerized antibodies He Abs in which one of the H chains was introduced with an alteration were assayed for their binding activities to each activating FcγR and inhibitory FcγR according to the method described in Example 4. […] The activating FcγRs in FIGS. 26, 27, 28, and 29 are FcγRIa, FcγRIIa (R), FcγRIIa (H), and FcγRIIIa, respectively.
(§2) Analysis of interaction between objective antibody and the FcγR was carried out using Biacore T100 (GE Healthcare). HBS-EP+ (GE Healthcare) was used as the running buffer, and the measurement temperature was set to 25° C. Chips produced by immobilizing the antigen peptide by the amine coupling method to a Series S Sencor Chip CM5 (GE Healthcare), or alternatively, chips produced by allowing preliminarily biotinylated antigen peptides to interact with and immobilize onto a Series S Sensor Chip SA (certified) (GE Healthcare) were used. Antibodies of interest were captured onto an antigen peptide-immobilized chip, and allowed to interact to each FcγR diluted with running buffer. To regenerate and repeatedly use the chip, the antibodies captured on the chip were washed off by reacting 10 mM glycine-HCl, pH 1.5.

Binder	IIaR/IIb (He_2aR/2b)
B1	0.66
B2	0.56
B3	0.64
B4	0.62
B5	0.73
B6	0.78
B7	0.74
B8	0.71
B9	0.33
B10	0.8
B11	0.54
B12	0.79
B13	0.7
B14	0.64
B15	0.75
B16	0.77
B17	0.67
B18	0.63

Binder	IIaR/IIb (He_2aR/2b)
B19	0.74
B20	0.8
B21	0.67
B22	0.79
B23	0.78
B24	0.72
B25	0.72
B26	0.61
B27	0.66
B28	0.65
B29	0.7
B30	0.68
B31	0.77
B32	0.54
B33	0.6
B34	0.78
B35	0.77

Target: T1, FcγRIIa R (FcγRIIa, allotype R, Arg at …)
Assay: Biacore SPR; binding relative to GpH7-A5/GpH7-B3/GpL16-k0 (=100)
Protocol: as §1, §2

Binder	He/Con_2aR (IIaR binding)
B1	72.1 % of control
B2	174 % of control
B3	106 % of control
B4	149 % of control
B5	144 % of control
B6	110 % of control
B7	148 % of control
B8	138 % of control
B9	2.5 % of control
B10	133 % of control
B11	7.5 % of control
B12	88.9 % of control
B13	152 % of control
B14	148 % of control
B15	144 % of control
B16	148 % of control
B17	148 % of control
B18	138 % of control

Binder	He/Con_2aR (IIaR binding)
B19	147 % of control
B20	127 % of control
B21	6 % of control
B22	134 % of control
B23	124 % of control
B24	156 % of control
B25	124 % of control
B26	105 % of control
B27	137 % of control
B28	151 % of control
B29	156 % of control
B30	140 % of control
B31	137 % of control
B32	5 % of control
B33	119 % of control
B34	133 % of control
B35	98 % of control

Target: T2, FcγRIIb, extracellular domain with …
Assay: as above
Protocol: as §1, §2

Binder	He/Con_2b (IIb binding)
B1	109 % of control
B2	312 % of control
B3	167 % of control
B4	239 % of control
B5	197 % of control
B6	140 % of control
B7	200 % of control
B8	193 % of control
B10	167 % of control
B11	13.9 % of control
B12	113 % of control
B13	217 % of control
B14	230 % of control
B15	193 % of control
B16	193 % of control
B17	221 % of control

Binder	He/Con_2b (IIb binding)
B18	219 % of control
B19	199 % of control
B20	160 % of control
B22	169 % of control
B23	160 % of control
B24	218 % of control
B25	172 % of control
B26	172 % of control
B27	206 % of control
B28	232 % of control
B29	223 % of control
B30	204 % of control
B31	177 % of control
B33	199 % of control
B34	171 % of control
B35	127 % of control
